Laboratory results taken from IntAct's records for PubMed 31515488.

B1: Alpha-taxilin (Homo sapiens), P40222 (parent)
chain: MKNQDKKNGAAKQSNPKSSPGQPEAGPEGAQERPSQAAPAVEAEGPGSSQAPRKPEGAQARTAQSGALRDVSEELSRQLEDILSTYCVDNNQGGPGEDGAQGEPAEPEDAEKSRTYVARNGEPEPTPVVNGEKEPSKGDPNTEEIRQSDEVGDRDHRRPQEKKKAKGLGKEITLLMQTLNTLSTPEEKLAALCKKYAELLEEHRNSQKQMKLLQKKQSQLVQEKDHLRGEHSKAVLARSKLESLCRELQRHNRSLKEEGVQRAREEEEKRKEVTSHFQVTLNDIQLQMEQHNERNSKLRQENMELAERLKKLIEQYELREEHIDKVFKHKDLQQQLVDAKLQQAQEMLKEAEERHQREKDFLLKEAVESQRMCELMKQQETHLKQQLALYTEKFEEFQNTLSKSSEVFTTFKQEMEKMTKKIKKLEKETTMYRSRWESSNKALLEMAEEKTVRDKELEGLQVKIQRLEKLCRALQTERNDLNKRVQDLSAGGQGSLTDSGPERRPEGPGAQAPSSPRVTEAPCYPGAPSTEASGQTGPQEPTSARA
partner: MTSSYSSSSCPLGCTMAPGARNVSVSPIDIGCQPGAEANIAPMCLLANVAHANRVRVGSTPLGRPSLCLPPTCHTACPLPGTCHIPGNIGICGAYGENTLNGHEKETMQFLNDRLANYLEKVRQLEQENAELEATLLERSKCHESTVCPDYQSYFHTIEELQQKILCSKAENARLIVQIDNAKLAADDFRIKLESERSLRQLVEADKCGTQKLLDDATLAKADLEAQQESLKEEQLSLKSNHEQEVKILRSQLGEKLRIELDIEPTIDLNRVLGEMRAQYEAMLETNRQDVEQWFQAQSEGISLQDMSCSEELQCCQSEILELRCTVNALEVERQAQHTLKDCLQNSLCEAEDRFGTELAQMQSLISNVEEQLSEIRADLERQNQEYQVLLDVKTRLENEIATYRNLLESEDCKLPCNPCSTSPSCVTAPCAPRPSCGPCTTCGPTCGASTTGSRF
B2: Coiled-coil domain-containing protein 42 (Homo sapiens), Q96M95 (parent)
chain: MSLGIMEEEDLAEYFRLQYGERLLQMLQKLPNVEGASESPSIWLLEKKKETEIMHQTMVQKKKMFQRRMETLNLRWEELGVKEAQLKAHIQKSEQFIQENDQKRIRAMKKANKERELKCQHMQELTKRKQEMVALRLEHQRLSAKLKDYYIFNKYLEKVVENSEFEEIHEVIARYKTLVSMRHDLMQSAQEGQEKIERAKARLARYMEEKDDEILQQNNELARLQMRFDRARSNVIFWESRWAHIQNTAAKKTLLLGTIKMATLNLFQIVSKHLKEVTEVALEDTHKQLDMIQQFIQDRSDIWAEVKKKEQQRVRI
B3: EKC/KEOPS complex subunit TP53RK (Homo sapiens), Q96S44 (parent)
chain: MAAARATTPADGEEPAPEAEALAAARERSSRFLSGLELVKQGAEARVFRGRFQGRAAVIKHRFPKGYRHPALEARLGRRRTVQEARALLRCRRAGISAPVVFFVDYASNCLYMEEIEGSVTVRDYIQSTMETEKTPQGLSNLAKTIGQVLARMHDEDLIHGDLTTSNMLLKPPLEQLNIVLIDFGLSFISALPEDKGVDLYVLEKAFLSTHPNTETVFEAFLKSYSTSSKKARPVLKKLDEVRLRGRKRSMVG
B4: Thialysine N-epsilon-acetyltransferase (Homo sapiens), Q96F10 (parent)
chain: MASVRIREAKEGDCGDILRLIRELAEFEKLSDQVKISEEALRADGFGDNPFYHCLVAEILPAPGKLLGPCVVGYGIYYFIYSTWKGRTIYLEDIYVMPEYRGQGIGSKIIKKVAEVALDKGCSQFRLAVLDWNQRAMDLYKALGAQDLTEAEGWHFFCFQGEATRKLAGK
B5: Nuclear autoantigen Sp-100 (Homo sapiens), P23497 (parent)
chain: MAGGGGDLSTRRLNECISPVANEMNHLPAHSHDLQRMFTEDQGVDDRLLYDIVFKHFKRNKVEISNAIKKTFPFLEGLRDRDLITNKMFEDSQDSCRNLVPVQRVVYNVLSELEKTFNLPVLEALFSDVNMQEYPDLIHIYKGFENVIHDKLPLQESEEEEREERSGLQLSLEQGTGENSFRSLTWPPSGSPSHAGTTPPENGLSEHPCETEQINAKRKDTTSDKDDSLGSQQTNEQCAQKAEPTESCEQIAVQVNNGDAGREMPCPLPCDEESPEAELHNHGIQINSCSVRLVDIKKEKPFSNSKVECQAQARTHHNQASDIIVISSEDSEGSTDVDEPLEVFISAPRSEPVINNDNPLESNDEKEGQEATCSRPQIVPEPMDFRKLSTFRESFKKRVIGQDHDFSESSEEEAPAEASSGALRSKHGEKAPMTSRSTSTWRIPSRKRRFSSSDFSDLSNGEELQETCSSSLRRGSGSQPQEPENKKCSCVMCFPKGVPRSQEARTESSQASDMMDTMDVENNSTLEKHSGKRRKKRRHRSKVNGLQRGRKKDRPRKHLTLNNKVQKKRWQQRGRKANTRPLKRRRKRGPRIPKDENINFKQSELPVTCGEVKGTLYKERFKQGTSKKCIQSEDKKWFTPREFEIEGDRGASKNWKLSIRCGGYTLKVLMENKFLPEPPSTRKKRILESHNNTLVDPCEEHKKKNPDASVKFSEFLKKCSETWKTIFAKEKGKFEDMAKADKAHYEREMKTYIPPKGEKKKKFKDPNAPKRPPLAFFLFCSEYRPKIKGEHPGLSIDDVVKKLAGMWNNTAAADKQFYEKKAAKLKEKYKKDIAAYRAKGKPNSAKKRVVKAEKSKKKKEEEEDEEDEQEEENEEDDDK
partner: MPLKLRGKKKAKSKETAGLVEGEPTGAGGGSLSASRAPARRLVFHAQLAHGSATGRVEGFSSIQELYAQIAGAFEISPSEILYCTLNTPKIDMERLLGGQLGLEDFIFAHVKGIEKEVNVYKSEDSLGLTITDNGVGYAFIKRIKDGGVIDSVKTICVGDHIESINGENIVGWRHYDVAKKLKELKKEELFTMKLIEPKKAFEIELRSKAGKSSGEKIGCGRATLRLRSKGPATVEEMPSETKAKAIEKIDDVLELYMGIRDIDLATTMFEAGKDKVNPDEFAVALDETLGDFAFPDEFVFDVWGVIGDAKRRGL

Variants of: B1
Conditions: with krt38_human KRT38, O76015

Variant	effect of a mutation on the interaction
R154G	disrupting interaction strength
S514R	with no effect
P541S	with no effect

Variants of: B2
Conditions: with trim1_human MID2, Q9UJV3
Sequence of trim1_human MID2, Q9UJV3 (Q9UJV3 whole entry): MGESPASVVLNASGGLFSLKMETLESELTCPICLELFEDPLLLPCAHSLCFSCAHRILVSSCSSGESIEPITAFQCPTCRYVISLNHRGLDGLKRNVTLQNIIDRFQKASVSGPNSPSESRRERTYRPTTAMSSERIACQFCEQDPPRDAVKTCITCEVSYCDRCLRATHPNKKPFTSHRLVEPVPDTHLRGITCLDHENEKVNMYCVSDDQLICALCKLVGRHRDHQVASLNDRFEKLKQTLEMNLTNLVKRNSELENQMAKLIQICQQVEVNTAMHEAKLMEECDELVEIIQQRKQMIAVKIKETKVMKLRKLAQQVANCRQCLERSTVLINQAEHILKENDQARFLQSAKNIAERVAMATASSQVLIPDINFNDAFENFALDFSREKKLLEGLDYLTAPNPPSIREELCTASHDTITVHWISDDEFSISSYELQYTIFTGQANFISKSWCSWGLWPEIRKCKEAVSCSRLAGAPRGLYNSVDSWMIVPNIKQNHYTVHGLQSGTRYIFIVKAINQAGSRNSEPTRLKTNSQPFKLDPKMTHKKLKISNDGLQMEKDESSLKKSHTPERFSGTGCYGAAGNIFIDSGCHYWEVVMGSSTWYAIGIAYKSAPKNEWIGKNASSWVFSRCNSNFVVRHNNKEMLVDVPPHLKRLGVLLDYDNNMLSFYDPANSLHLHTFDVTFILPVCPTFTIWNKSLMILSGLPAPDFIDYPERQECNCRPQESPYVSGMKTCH

Variant	effect of a mutation on the interaction
R128H	with no effect
A144T	with no effect

Variants of: B2
Conditions: with tfp11_human TFIP11, Q9UBB9
Sequence of tfp11_human TFIP11, Q9UBB9 (Q9UBB9 whole entry): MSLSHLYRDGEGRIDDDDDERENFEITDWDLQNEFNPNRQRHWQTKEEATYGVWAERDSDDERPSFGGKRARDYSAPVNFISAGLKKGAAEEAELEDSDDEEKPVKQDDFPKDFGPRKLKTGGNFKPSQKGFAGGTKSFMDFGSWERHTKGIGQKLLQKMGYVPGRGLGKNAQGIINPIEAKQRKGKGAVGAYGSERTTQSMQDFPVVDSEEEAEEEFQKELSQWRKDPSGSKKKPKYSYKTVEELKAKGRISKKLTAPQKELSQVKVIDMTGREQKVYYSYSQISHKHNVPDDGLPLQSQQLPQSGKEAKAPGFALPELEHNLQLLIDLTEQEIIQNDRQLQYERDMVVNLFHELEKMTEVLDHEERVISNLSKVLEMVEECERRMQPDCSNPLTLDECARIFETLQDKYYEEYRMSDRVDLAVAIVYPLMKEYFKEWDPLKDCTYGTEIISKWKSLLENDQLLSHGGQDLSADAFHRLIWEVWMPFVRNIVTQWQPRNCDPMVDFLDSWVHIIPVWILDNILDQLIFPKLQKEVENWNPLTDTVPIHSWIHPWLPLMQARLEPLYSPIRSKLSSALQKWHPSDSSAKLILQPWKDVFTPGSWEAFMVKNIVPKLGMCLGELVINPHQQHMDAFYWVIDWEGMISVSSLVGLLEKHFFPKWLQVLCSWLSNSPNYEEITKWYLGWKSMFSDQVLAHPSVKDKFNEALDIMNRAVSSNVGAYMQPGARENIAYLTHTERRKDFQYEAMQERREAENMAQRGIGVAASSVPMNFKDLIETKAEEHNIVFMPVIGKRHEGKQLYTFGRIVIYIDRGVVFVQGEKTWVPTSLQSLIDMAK

Variant	effect of a mutation on the interaction
R128H	with no effect
A144T	with no effect

Variants of: B3
Conditions: with ccdb1_human CCNDBP1, O95273
Sequence of ccdb1_human CCNDBP1, O95273 (O95273 whole entry): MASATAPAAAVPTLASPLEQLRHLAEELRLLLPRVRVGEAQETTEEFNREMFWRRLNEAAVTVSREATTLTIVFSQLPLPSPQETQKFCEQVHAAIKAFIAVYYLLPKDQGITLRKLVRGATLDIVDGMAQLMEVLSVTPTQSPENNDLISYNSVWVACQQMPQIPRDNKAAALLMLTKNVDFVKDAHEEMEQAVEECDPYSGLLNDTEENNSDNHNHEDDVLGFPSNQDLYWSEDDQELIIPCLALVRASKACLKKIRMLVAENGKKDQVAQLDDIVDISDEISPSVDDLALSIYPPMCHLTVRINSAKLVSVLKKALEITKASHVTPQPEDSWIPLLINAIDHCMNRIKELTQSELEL

Variant	effect of a mutation on the interaction
T8M	with no effect

Variants of: B4
Conditions: with sat1_human SAT1, P21673
Sequence of sat1_human SAT1, P21673 (P21673 whole entry): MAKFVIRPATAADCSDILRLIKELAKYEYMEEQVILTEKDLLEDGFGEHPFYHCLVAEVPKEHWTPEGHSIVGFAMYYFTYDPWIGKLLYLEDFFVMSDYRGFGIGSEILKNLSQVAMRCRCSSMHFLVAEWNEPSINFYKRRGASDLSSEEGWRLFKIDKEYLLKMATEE

Variant	effect of a mutation on the interaction
R126C	disrupting interaction strength

Variants of: B5
Conditions: with gipc2_human GIPC2, Q8TF65

Variant	effect of a mutation on the interaction
M433V	with no effect
